The values below come from patent US20220281998A1 (AZUSAPHARMA SCIENCES, published 2022).

Assay [1] addresses human PSMA on 22Rv1 cells (PSMA-positive human prostate cancer cell line) (human, UniProt Q04609 1-750). Put plainly: cell-based or functional assay.
The target in assay [2] is human EGFR on human cancer cell lines (HCT116, A-431, NCI-H1975, HT-29, RKO) (human, UniProt P00533 25-1210). As to the kind of experiment: cell-based or functional assay.
In assay [3] the target is T1, human CD3E/CD3D heterodimer recombinant protein (manufactured by ACROBiosystems) (human, UniProt P07766 23-126; P04234 22-105).
T1 construct: Bought reagent, immobilised on ELISA plates
T1 sequence (P07766 23-126 limits assumed, chain 1 of 2): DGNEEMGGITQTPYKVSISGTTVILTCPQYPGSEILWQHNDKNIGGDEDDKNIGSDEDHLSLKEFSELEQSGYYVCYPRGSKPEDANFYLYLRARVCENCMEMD
T1 sequence (P04234 22-105 limits assumed, chain 2 of 2): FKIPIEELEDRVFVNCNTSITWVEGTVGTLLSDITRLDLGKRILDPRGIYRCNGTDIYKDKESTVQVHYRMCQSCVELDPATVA
As to the kind of experiment: sandwich ELISA: immobilised human CD3E/CD3D heterodimer, BsAb, biotinylated human EGFR.

The target in assay [4] is T1, human CD3E/CD3D heterodimer recombinant …. As to the kind of experiment: sandwich ELISA: immobilised human CD3E/CD3D heterodimer, BsAb, biotinylated HER2. On the technique in general: In an ELISA, binding on a coated surface is turned into a signal by an enzyme label.

Chain of human PSMA on 22Rv1 cells (PSMA-positive human prostate cancer cell line) (Q04609 whole entry): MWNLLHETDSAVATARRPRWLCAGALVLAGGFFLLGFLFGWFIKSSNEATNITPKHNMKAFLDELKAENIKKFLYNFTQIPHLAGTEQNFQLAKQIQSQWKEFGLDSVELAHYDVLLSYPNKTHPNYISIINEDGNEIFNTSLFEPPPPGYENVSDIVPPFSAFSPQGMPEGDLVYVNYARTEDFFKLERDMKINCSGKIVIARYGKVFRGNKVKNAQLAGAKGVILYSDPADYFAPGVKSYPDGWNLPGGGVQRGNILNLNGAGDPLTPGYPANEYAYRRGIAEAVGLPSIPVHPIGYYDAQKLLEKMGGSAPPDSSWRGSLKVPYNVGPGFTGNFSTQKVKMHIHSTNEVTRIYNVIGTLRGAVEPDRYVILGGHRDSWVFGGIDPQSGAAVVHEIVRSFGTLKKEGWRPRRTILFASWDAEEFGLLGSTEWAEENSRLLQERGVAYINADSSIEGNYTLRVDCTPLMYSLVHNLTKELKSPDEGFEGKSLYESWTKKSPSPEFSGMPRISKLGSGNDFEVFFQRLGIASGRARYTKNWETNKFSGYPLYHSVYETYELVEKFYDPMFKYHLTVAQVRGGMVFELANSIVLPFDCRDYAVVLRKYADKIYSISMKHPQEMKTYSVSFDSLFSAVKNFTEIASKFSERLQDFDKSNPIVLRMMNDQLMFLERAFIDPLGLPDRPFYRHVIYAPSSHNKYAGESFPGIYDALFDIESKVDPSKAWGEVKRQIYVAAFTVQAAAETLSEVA

B1: LH-PUM-H diabody-type BsAb (PSMA×CD3 diabody-type BsAb derived from LH-PUM-H strain) (bispecific antibody)
chain 1: ATDIQMTQSPSSLSASVGDRVTITCRASQDIRNYLNWYQQKPGKAPKLLIYYTSRLESGVPSRFSGSGSGTDYTLTISSLQPEDFATYYCQQGNTLPWTFGQGTKVEIKAAGGGGSQVQLVESGGGLVKPGESLRLSCAASGFTFSDYYMYWVRQAPGKGLEWVAIISDGGYYTYYSDIIKGRFTISRDNAKNSLYLQMNSLKAEDTAVYYCARGFPLLRHGAMDYWGQGTLVTVSSAAAEQKLISEEDLNLGGGMRGSHHHHHH
chain 2: ADDIQMTQSPSSLSASVGDRVTITCKASQNVDTNVAWYQQKPGQAPKSLIYSASYRYSDVPSRFSGSASGTDFTLTISSVQSEDFATYYCQQYDSYPYTFGGGTKLEIKAAGGGGSEVQLVESGGGLVQPGGSLRLSCAASGYSFTGYTMNWVRQAPGKGLEWVALINPYKGVSTYNQKFKDRFTISVDKSKNTAYLQMNSLRAEDTAVYYCARSGYYGDSDWYFDVWGQGTLVTVSSAAAEQKLISEEDLNLGGGMRGSHHHHHH
Take B1: the “EC50, cytotoxic activity on 22Rv1 cells with T-LAKs” value in assay [1] is 155 pM.

B2: LH31 diabody-type BsAb (EGFR×CD3 diabody-type BsAb derived from DUM-126H strain) (bispecific antibody)
chain 1: ATDIQMTQSPSSLSASVGDRVTITCRASQDIRNYLNWYQQKPGKAPKLLIYYTSRLESGVPSRFSGSGSGTDYTLTISSLQPEDFATYYCQQGNTLPWTFGQGTKVEIKAAGGGGSEVQLVESGGGLVQPGGSLRLSCAASGFTLSGDWIHWVRQAPGKGLEWLGEISAAGGYTDYADSVKGRFTISADTSKNTAYLQMNSLRAEDTAVYYCARESRVSFEAAMDYWGQGTLVTVSSAAAAEQKLISEEDLNLGGGMRGSHHHHHH
chain 2: ATDIQMTQSPSSLSASVGDRVTITCRASQDLATDVAWYQQKPGKAPKLLIYSASFLYSGVPSRFSGSGSGTDFTLTISSLQPEDFATYYCQQSEPEPYTFGQGTKVEIKAAGGGGSEVQLVESGGGLVQPGGSLRLSCAASGYSFTGYTMNWVRQAPGKGLEWVALINPYKGVSTYNQKFKDRFTISVDKSKNTAYLQMNSLRAEDTAVYYCARSGYYGDSDWYFDVWGQGTLVTVSSAAAEQKLISEEDLNLGGGMRGSHHHHHH
notes: Secreted by Bifidobacterium longum 105-A carrying plasmid p126; purified on protein L resin; also called LH31 polypeptide 1 + LH31 polypeptide 2 with SP50-L2
B2: the “EC50, viability of HCT116 cells with T-LAKs” value in assay [2] was 8.4 pM. The binding result in assay [3] was “binds”.

B3: HL-PUM-H diabody-type BsAb (PSMA×CD3 diabody-type BsAb derived from HL-PUM-H strain) (bispecific antibody)
chain 1: ATEVQLVESGGGLVQPGGSLRLSCAASGYSFTGYTMNWVRQAPGKGLEWVALINPYKGVSTYNQKFKDRFTISVDKSKNTAYLQMNSLRAEDTAVYYCARSGYYGDSDWYFDVWGQGTLVTVSSAAGGGGSDIQMTQSPSSLSASVGDRVTITCKASQNVDTNVAWYQQKPGQAPKSLIYSASYRYSDVPSRFSGSASGTDFTLTISSVQSEDFATYYCQQYDSYPYTFGGGTKLEIKAAAEQKLISEEDLNLGGGMRGSHHHHHH
chain 2: ADQVQLVESGGGLVKPGESLRLSCAASGFTFSDYYMYWVRQAPGKGLEWVAIISDGGYYTYYSDIIKGRFTISRDNAKNSLYLQMNSLKAEDTAVYYCARGFPLLRHGAMDYWGQGTLVTVSSAAGGGGSDIQMTQSPSSLSASVGDRVTITCRASQDIRNYLNWYQQKPGKAPKLLIYYTSRLESGVPSRFSGSGSGTDYTLTISSLQPEDFATYYCQQGNTLPWTFGQGTKVEIKAAAEQKLISEEDLNLGGGMRGSHHHHHH
Take B3: the “EC50, cytotoxic activity on 22Rv1 cells with T-LAKs” value in assay [1] amounted to 233 pM.

B4: LH36 diabody-type BsAb (HER2×CD3 diabody-type BsAb derived from CUM-36-2H strain) (bispecific antibody)
chain 1: ATLTPDIQMTQSPSSLSASVGDRVTITCKASQDVSIGVAWYQQKPGKAPKLLIYSASYRYTGVPSRFSGSGSGTDFTLTISSLQPEDFATYYCQQYYIYPYTFGQGTKVEIKAAGGGGSEVQLVESGGGLVQPGGSLRLSCAASGYSFTGYTMNWVRQAPGKGLEWVALINPYKGVSTYNQKFKDRFTISVDKSKNTAYLQMNSLRAEDTAVYYCARSGYYGDSDWYFDVWGQGTLVTVSSAAAEQKLISEEDLNLGGGMRGSHHHHHH
chain 2: ADDIQMTQSPSSLSASVGDRVTITCRASQDIRNYLNWYQQKPGKAPKLLIYYTSRLESGVPSRFSGSGSGTDYTLTISSLQPEDFATYYCQQGNTLPWTFGQGTKVEIKAAGGGGSEVQLVESGGGLVQPGGSLRLSCAASGFTFTDYTMDWVRQAPGKGLEWVADVNPNSGGSIYNQRFKGRFTLSVDRSKNTLYLQMNSLRAEDTAVYYCARNLGPSFYFDYWGQGTLVTVSSAAAEQKLISEEDLNLGGGMRGSHHHHHH
notes: Secreted by Bifidobacterium longum 105-A carrying pLH36-2; purified through the His tag; also called LH36 polypeptide 1 + LH36 polypeptide 2 (SP52-L2)
Turning to B4, the binding result in assay [4] is recorded as “binds”.

B5: LH22 diabody-type BsAb (EGFR×CD3 diabody-type BsAb derived from FOM-22H strain) (bispecific antibody)
chain 1: ATLTPDIQMTQSPSSLSASVGDRVTITCSASSSVSYMNWYQQTPGKAPKRWIYDTSKLASGVPSRFSGSGSGTDYTFTISSLQPEDIATYYCQQWSSNPFTFGQGTKLQITAAGGGGSQVQLQESGPGLVKPSQTLSLTCTVSGGSISSGDYYWSWIRQPPGKGLEWIGYIYYSGSTDYNPSLKSRVTMSVDTSKNQFSLKVNSVTAADTAVYYCARVSIFGVGTFDYWGQGTLVTVSSAAAEQKLISEEDLNLGGGMRGSHHHHHH
chain 2: ATLTPDIVMTQSPATLSLSPGERATLSCRASQSVSSYLAWYQQKPGQAPRLLIYDASNRATGIPARFSGSGSGTDFTLTISSLEPEDFAVYYCHQYGSTPLTFGGGTKAEIKAAGGGGSQVQLVQSGGGVVQPGRSLRLSCKASGYTFTRYTMHWVRQAPGKGLEWIGYINPSRGYTNYNQKVKDRFTISRDNSKNTAFLQMDSLRPEDTGVYFCARYYDDHYSLDYWGQGTPVTVSSAAAEQKLISEEDLNLGGGMRGSHHHHHH
As to B5, in assay [2], the “EC50: concentration that reduced the viability of HCT116 cells to 50% (T-LAK:HCT116 5:1, 24 h)” value is 0.25 pM.

B6: LH9 diabody-type BsAb (EGFR×CD3 diabody-type BsAb derived from FLM-9H strain) (bispecific antibody)
chain 1: ATLTPDIVLTQSPATLSLSPGERATLSCRASQSVSYMNWYQQKPGKAPKRWIYDTSKVASGVPARFSGSGSGTDYSLTINSLEAEDAATYYCQQWSSNPLTFGGGTKVEIKAAGGGGSQVQLQESGPGLVKPSQTLSLTCTVSGGSISSGDYYWSWIRQPPGKGLEWIGYIYYSGSTDYNPSLKSRVTMSVDTSKNQFSLKVNSVTAADTAVYYCARVSIFGVGTFDYWGQGTLVTVSSAAAAEQKLISEEDLNLGGGMRGSHHHHHH
chain 2: ATLTPDIVMTQSPATLSLSPGERATLSCRASQSVSSYLAWYQQKPGQAPRLLIYDASNRATGIPARFSGSGSGTDFTLTISSLEPEDFAVYYCHQYGSTPLTFGGGTKAEIKAAGGGGSDVQLVQSGAEVKKPGASVKVSCKASGYTFTRYTMHWVRQAPGQGLEWIGYINPSRGYTNYADSVKGRFTITTDKSTSTAYMELSSLRSEDTATYYCARYYDDHYCLDYWGQGTTVTVSSAAAEQKLISEEDLNLGGGMRGSHHHHHH
B6: the “EC50: concentration that reduced the viability of HCT116 cells to 50% (T-LAK:HCT116 5:1, 24 h)” value in assay [2] was 2.2 pM.
